Results reported in US20230192837A1 (published 2023).
Substitutions are numbered along the chain they refer to. Each block holds one binder with its values, some of them ahead of it.

Experiments:
[1] = target: cynomolgus monkey TNFα (cynomolgus monkey, UniProt P79337 57-233, limits assumed); test: cell-based or functional assay
[2] = target: T1, human TNFα (human, UniProt P01375 57-233, limits assumed); test: cell-based or functional assay
[3] = target: T1, human TNFα; test: cell-based or functional assay; remark: listed apart in the source
[4] = target: membrane human TNFα (non-cleavable TNFα) expressed on CHO cells (human, UniProt P01375 1-233); test: cell-based or functional assay
[5] = target: T2, rhesus macaque TNFα (rhesus macaque, UniProt P48094 77-233); test: antigen-down ELISA, TNFα coated on plate, anti-human kappa-AP detection
T2 construct: Bought (R&D Systems, Cat #1070-RM); also called rhesus macaque monkey TNFα
T2 sequence (P48094 77-233 limits assumed): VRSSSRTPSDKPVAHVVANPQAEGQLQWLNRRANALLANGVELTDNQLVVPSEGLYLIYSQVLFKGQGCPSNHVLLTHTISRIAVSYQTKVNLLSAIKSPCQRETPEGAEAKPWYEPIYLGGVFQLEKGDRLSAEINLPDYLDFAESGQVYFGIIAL
Description: Once the color developed (approximately 15-30 min), plates were read at 560 nm OD on a Molecular Device Spectramax plate reader and data was acquired using Softmax Pro 4.7 software. Data analysis was performed in GraphPad Prism.

T1 sequence (P01375 57-233 limits assumed, form in doubt): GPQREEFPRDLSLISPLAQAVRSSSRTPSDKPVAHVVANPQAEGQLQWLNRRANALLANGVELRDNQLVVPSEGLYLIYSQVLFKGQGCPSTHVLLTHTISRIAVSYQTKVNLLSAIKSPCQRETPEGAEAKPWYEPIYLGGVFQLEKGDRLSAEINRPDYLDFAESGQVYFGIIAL
Sequence of cynomolgus monkey TNFα (P79337 57-233 limits assumed, form in doubt): as the sequence (P01375 57-233 limits assumed, form in doubt) above, with R9K, L11P, L57V, R64T, T92N, R158L counted along it

B1: Ab3 (antibody, human IgG1, kappa, V domains shown)
VH: QVQLVQSGAEVKKPGASVKVSCKASGYTFTGYYMHWVRQAPGQGLEWMGWINPYTGGTKYAQKFQGRVTMTRDTSISTAYMELSRLRSDDTAVYYCARDLYGSSNYGMDVWGQGTTVTVSS
VL: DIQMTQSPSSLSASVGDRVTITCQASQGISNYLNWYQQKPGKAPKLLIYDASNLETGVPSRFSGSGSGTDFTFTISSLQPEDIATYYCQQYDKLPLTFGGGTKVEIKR
- IC50 of inhibition of soluble cynomolgus monkey TNFα induced cell killing of L929 cells [1]: 0.02 mg/L
- IC50 of inhibition of soluble human TNFα induced cell killing of L929 cells [2]: 0.19 mg/L
- % Inhibition of human TNFα-induced plasma CXCL1 in C57/B6 mice, dose 0.3 mg/kg [3]: 64.4%
- % Inhibition of human TNFα-induced plasma CXCL1 in C57/B6 mice, dose 3 mg/kg [3]: 86.6%

B3: Ab2 (antibody, human IgG1, kappa, V domains shown)
VH: B1 VH with M34I, K59N
VL: not shown
- IC50 of inhibition of soluble cynomolgus monkey TNFα induced cell killing of L929 cells [1]: 0.02 mg/L
- IC50 of inhibition of soluble human TNFα induced cell killing of L929 cells [2]: 0.13 mg/L
- % Inhibition of human TNFα-induced plasma CXCL1 in C57/B6 mice, dose 0.3 mg/kg [3]: 46.5%
- % Inhibition of human TNFα-induced plasma CXCL1 in C57/B6 mice, dose 3 mg/kg [3]: 82.1%

B5: Ab1 (antibody, human IgG1, kappa, V domains shown)
VH: B1 VH with M34I, K59N, M108G
VL: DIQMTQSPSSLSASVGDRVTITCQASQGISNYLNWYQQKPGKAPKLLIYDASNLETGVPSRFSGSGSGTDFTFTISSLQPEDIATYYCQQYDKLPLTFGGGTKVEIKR
notes: Human IgG1 with kappa light chain, expressed in CHO cells; also called exemplified anti-human TNFα antibody Ab1
- IC50 of inhibition of soluble cynomolgus monkey TNFα induced cell killing of L929 cells [1]: 0.02 mg/L
- IC50 of inhibition of soluble human TNFα induced cell killing of L929 cells [2]: 0.16 mg/L
- % Inhibition of human TNFα-induced plasma CXCL1 in C57/B6 mice, dose 0.3 mg/kg [3]: 63%
- % Inhibition of human TNFα-induced plasma CXCL1 in C57/B6 mice, dose 3 mg/kg [3]: 83.9%
- EC50 [5]: 0.155 mg/L

Further lines, with some results ahead:

- % Inhibition of human TNFα-induced plasma CXCL1 in C57/B6 mice, dose 0.3 mg/kg [3]: 49.8%
- % Inhibition of human TNFα-induced plasma CXCL1 in C57/B6 mice, dose 3 mg/kg [3]: 84.3%
B2: Ab5 (antibody, human IgG1, kappa, V domains shown)
VH: B1 VH
VL: DIQMTQSPSSLSASVGDRVTITCQASQGIRNYLNWYQQKPGKAPKLLIYDASNLETGVPSRFSGSGSGTDFTFTISSLQPEDIATYYCQQYDKLPLTFGGGTKVEIKR
- IC50 of inhibition of soluble cynomolgus monkey TNFα induced cell killing of L929 cells [1]: 0.03 mg/L
- IC50 of inhibition of soluble human TNFα induced cell killing of L929 cells [2]: 0.22 mg/L
- IC50 of inhibition of membrane TNFα-induced cell killing of L929 cells [4]: 0.2 mg/L

- % Inhibition of human TNFα-induced plasma CXCL1 in C57/B6 mice, dose 0.3 mg/kg [3]: 57.2%
- % Inhibition of human TNFα-induced plasma CXCL1 in C57/B6 mice, dose 3 mg/kg [3]: 92.6%
B4: Ab4 (antibody, human IgG1, kappa, V domains shown)
VH: B1 VH
VL: not shown
- IC50 of inhibition of soluble cynomolgus monkey TNFα induced cell killing of L929 cells [1]: 0.02 mg/L
- IC50 of inhibition of soluble human TNFα induced cell killing of L929 cells [2]: 0.19 mg/L
